Data on 21 molecules can be found in patent US20230303654A1 (CITY OF HOPE, published 2023).

Test [1] concerns the target purified 6× His-tagged SARS-CoV-2 spike protein (ELISA coat, Example 12) (SARS-CoV-2, UniProt P0DTC2 14-1213).
Test [2] shares this target. This is another data set of the same source.

B1: ab14 (scFv, V domains shown)
VH: QVQLQQSGPGLVKPSQTLSLTCAISGDSVSSNSAAWNWIRQSPARGLEWLGRTYYRSRWYNDYAISMKSRITINPDTSKNQFSLQLESVTPEDTAVYYCAREIRGFDYWGQGTLVTVSS
VL: QSVLTQPPSASGSPGQSVTISCTGTSSDVGAYNFVSWYQHHPGKAPKLIIYDFNKRPSGVPDRFSGSKSGNTASLTVSGLQADDEADYYCSSYAGSNNFDVVFGGGTKLTVL
As to B1, a half-maximal effect in test [1] (EC50) was put at 154 nM.

B2: ab23 (scFv, V domains shown)
VH: EVQLVQSGAEVKKPGSSVKVSCRSSGGTFSTYGITWVRQAPGQGLEWMGRIIPSLGIPNYAQKFQGRVTITADTSVSTAWMELSSLESDDTAIYYCARENIDLATNDFWGQGTLVTVSS
VL: QSALTQPPSASGSPGQSVTISCTGTSRDIGAYGYVSWYQQVPGKAPKLIIYEVRNRPSGVSSRFSGSKSGNTASLTISGLQAEDEADYYCSSYTSSSTLDVVFGGGTKLTVL
B2 gave a half-maximal effective concentration (EC50) in test [1] of 116 nM.

B3: Anti-spike RBD Ab36 scFv (scFv)
scFv: ELVMTQSPSSVSASVGDRVTITCRASQAIGSWLAWYQQKPGKAPKLLISSASSLQSGVPSRFSGSGSGTDFTLTISSLQPEDFATYYCQQLDSYPVTFGPGTKVDIKGGSSRSSEVQLLESGGGLIQPGGSLRLSCAASGLTVSSNYMSWVRQAPGKGLEWVSVIYSGGSTYYADSVKGRFTISRDNSKNTLYLQMNSLRAEDTAVYYCARAIDSGAFDIWGQGTMVTVSSGSASAPTL
In test [2], B3 showed an EC50 of 31.2 nM.

B4: ab19 (scFv, V domains shown)
VH: EVQLVESGAEVKKPGESLKISCKGSGYSFTSYWIGWVRQMPGKGLEWMGIIYPGDSDTRYSPSFQGQVTISADKSISTAYLQWSSLKASDTAMYYCARRGDLDAFDIWGQGTMVTVSS
VL: QPGLTQPPAASGTPGQRVTVSCSGASANIGSNAVSWFKQFPETAPRLLISGNTHRPSGVPDRVSGSKSGTSASLTISGLQSDDEADYYCAAWDDSLNGYVFGSGTKVTVL
On to B4, for which, in test [1], a half-maximal effect (EC50) was put at 24.2 nM.

B5: ab31 (scFv, V domains shown)
VH: EVQLVESGAEVKKPGESLKISCKGSGYTFTRYWIGWVRQMPGKGLEWMGIIYPGDLDTRYSPSFQGHVTISADKSISTAYLQWNSLKASDTAMYYCARLPQYCYKGVCKRWFDPWGQGTLVTVSS
VL: EIVLTQSPSSVSASVGDRVTITCRASQGIRSWLAWYQQKPGKAPKLLIYAASSLQSGVPSRFSGSGSGTDFTLTISSLQPEDFATYYCQQGHSVPYTFGQGTNLEIK
For the molecule B5, the concentration giving a half-maximal response (EC50) in test [1] amounted to 40.4 nM.

B6: ab43 (scFv, V domains shown)
VH: EVQLVESGAEVKKPGESLKISCKGSGYTFTRYWIGWVRQMPGKGLEWMGIIYPGDSDTRYSPSFQGHVTISADKSISTAYLQWNSLKASDTAMYYCARLPQYCSAGVCFRWFDPWGQGTLVTVSS
VL: EIVLTQSPSSVSASVGDRVTITCRASQGISSWLAWYQQKPGKAPKLLIYAASSLQSGVPSRFSGSGSGTDFTLTISSLQPEDFATYYCQQGHSFPYTFGQGTNLEIK
B6 had an EC50 in test [1] of 216 nM.

B7: ab33 (scFv, V domains shown)
VH: EVQLVESGAEVKKPGESLKISCKGSGYTFTRYWIGWVRQMPGKGLEWMGIIYPGDSDTRYSPSFQGHVTISADKSISTAYLQWNSLKASDTAMYYCARLPQYCRAGKCKRWFDPWGQGTLVTVSS
VL: EIVLTQSPSSVSASVGDRVTITCRASQGISSWLAWYQQKPGKAPKLLIYAASSLQSGVPSRFSGSGSGTDFTLTISSLQPEDFATYYCQQGNQYPYTFGQGTNLEIK
For B7, the response in test [1] was half-maximal at 33.4 nM (EC50).

B8: ab34 (scFv, V domains shown)
VH: EVQLVESGAEVKKPGESLKISCKGSGYTFTRYWIGWVRQMPGKGLEWMGIIYPGDADVRYSPSFQGHVTISADKSISTAYLQWNSLKASDTAMYYCARLPQYCRKGVCKRWFDPWGQGTLVTVSS
VL: EIVLTQSPSSVSASVGDRVTITCRASQGIRSWLAWYQQKPGKAPKLLIYAASSLQSGVPSRFSGSGSGTDFTLTISSLQPEDFATYYCQQGHSTPYTFGQGTNLEIK
B8 came in with an EC50 in test [1] of 22.7 nM.

B9: ab44 (scFv, V domains shown)
VH: EVQLVESGAEVKKPGESLKISCKGSGYTFTRYWIGWVRQMPGKGLEWMGIIYPGDLDVRYSPSFQGHVTISADKSISTAYLQWNSLKASDTAMYYCARLPQYCREGKCHRWFDPWGQGTLVTVSS
VL: EIVLTQSPSSVSASVGDRVTITCRASQGIRNWLAWYQQKPGKAPKLLIYAASSLQSGVPSRFSGSGSGTDFTLTISSLQPEDFATYYCQQGDQDPLTFGQGTNLEIK
B9 displayed an EC50 in test [1] of 28.2 nM.

B10: ab35 (scFv, V domains shown)
VH: EVQLVESGAEVKKPGESLKISCKGSGYTFTRYWIGWVRQMPGKGLEWMGIIYPGDADTRYSPSFQGHVTISADKSISTAYLQWNSLKASDTAMYYCARLPQYCSRGVCQRWFDPWGQGTLVTVSS
VL: EIVLTQSPSSVSASVGDRVTITCRASQGISSWLAWYQQKPGKAPKLLIYAASSLQSGVPSRFSGSGSGTDFTLTISSLQPEDFATYYCQQGNQFPYTFGQGTNLEIK
As for B10, in test [1], the EC50 is 39 nM.

B11: ab32 (scFv, V domains shown)
VH: EVQLVESGAEVKKPGESLKISCKGSGYTFTRYWIGWVRQMPGKGLEWMGIIYPGDSETRYSPSFQGHVTISADKSISTAYLQWNSLKASDTAMYYCARLPQYCRRGVCKRWFDPWGQGTLVTVSS
VL: EIVLTQSPSSVSASVGDRVTITCRASQGISSWLAWYQQKPGKAPKLLIYAASSLQSGVPSRFSGSGSGTDFTLTISSLQPEDFATYYCQQGNQLPYTFGQGTNLEIK
As for B11, the response in test [1] was half-maximal at 13.1 nM (EC50).

B12: ab50 (scFv, V domains shown)
VH: EVQLVESGAEVKKPGESLKISCKGSGYTFTRYWIGWVRQMPGKGLEWMGIIYPGDADVRYSPSFQGHVTISADKSISTAYLQWNSLKASDTAMYYCARLPQYCSSGSCFRWFDPWGQGTLVTVSS
VL: EIVLTQSPSSVSASVGDRVTITCRASQGISSWLAWYQQKPGKAPKLLIYAASSLQSGVPSRFSGSGSGTDFTLTISSLQPEDFATYYCQQGYSTPYTFGQGTNLEIK
As to B12, in test [1], a half-maximal response (EC50) required 165 nM.

B13: ab47 (scFv, V domains shown)
VH: EVQLVESGAEVKKPGESLKISCKGSGYTFTRYWIGWVRQMPGKGLEWMGIIYPGDSDTRYSPSFQGHVTISADKSISTAYLQWNSLKASDTAMYYCARLPQYCQNGVCHRWFDPWGQGTLVTVSS
VL: EIVLTQSPSSVSASVGDRVTITCRASQGIRNWLAWYQQKPGKAPKLLIYAASSLQSGVPSRFSGSGSGTDFTLTISSLQPEDFATYYCQQGDQDPLTFGQGTNLEIK
B13: the response in test [1] was half-maximal at 81.7 nM (EC50).

B14: ab49 (scFv, V domains shown)
VH: EVQLVESGAEVKKPGESLKISCKGSGYTFTRYWIGWVRQMPGKGLEWMGIIYPGDSDTRYSPSFQGHVTISADKSISTAYLQWNSLKASDTAMYYCARLPQYCENGICKRWFDPWGQGTLVTVSS
VL: EIVLTQSPSSVSASVGDRVTITCRASQGIRSWLAWYQQKPGKAPKLLIYAASSLQSGVPSRFSGSGSGTDFTLTISSLQPEDFATYYCQQGDQYPLTFGQGTNLEIK
As to B14, a half-maximal response in test [1] (EC50) required 234 nM.

B15: ab42 (scFv, V domains shown)
VH: EVQLVESGAEVKKPGESLKISCKGSGYTFTRYWIGWVRQMPGKGLEWMGIIYPGDSDTRYSPSFQGHVTISADKSISTAYLQWNSLKASDTAMYYCARLPQYCQSGVCKRWFDPWGQGTLVTVSS
VL: EIVLTQSPSSVSASVGDRVTITCRASQGIRSWLAWYQQKPGKAPKLLIYAASSLQSGVPSRFSGSGSGTDFTLTISSLQPEDFATYYCQQGDQYPLTFGQGTNLEIK
Regarding B15, a half-maximal response in test [1] (EC50) required 721 nM.

B16: ab46 (scFv, V domains shown)
VH: EVQLVESGAEVKKPGESLKISCKGSGYTFTRYWIGWVRQMPGKGLEWMGIIYPGDSDTRYSPSFQGHVTISADKSISTAYLQWNSLKASDTAMYYCARLPQYCSSGVCHRWFDPWGQGTLVTVSS
VL: EIVLTQSPSSVSASVGDRVTITCRASQGISSWLAWYQQKPGKAPKLLIYAASSLQSGVPSRFSGSGSGTDFTLTISSLQPEDFATYYCQQGHSFPYTFGQGTNLEIK
As for B16, in test [1], the EC50 turned out to be 106 nM.

B17: ab48 (scFv, V domains shown)
VH: EVQLVESGAEVKKPGESLKISCKGSGYTFTRYWIGWVRQMPGKGLEWMGIIYPGDNDVRYSPSFQGHVTISADKSISTAYLQWNSLKASDTAMYYCARLPQYCDKGICKRWFDPWGQGTLVTVSS
VL: EIVLTQSPSSVSASVGDRVTITCRASQGISSWLAWYQQKPGKAPKLLIYAASSLQSGVPSRFSGSGSGTDFTLTISSLQPEDFATYYCQQGDQLPYTFGQGTNLEIK
With B17, a half-maximal response in test [1] (EC50) required 1560 nM. Compared with the last molecule, the EC50 is about 15-fold higher.

B18: ab45 (scFv, V domains shown)
VH: EVQLVESGAEVKKPGESLKISCKGSGYTFTRYWIGWVRQMPGKGLEWMGIIYPGDSDTRYSPSFQGHVTISADKSISTAYLQWNSLKASDTAMYYCARLPQYCSSGVCQRWFDPWGQGTLVTVSS
VL: EIVLTQSPSSVSASVGDRVTITCRASQGISSWLAWYQQKPGKAPKLLIYAASSLQSGVPSRFSGSGSGTDFTLTISSLQPEDFATYYCQQGNQFPYTFGQGTNLEIK
For B18, the response in test [1] was half-maximal at 37.3 nM (EC50).

B19: ab40 (scFv, V domains shown)
VH: EVQLVESGAEVKKPGESLKISCKGSGYTFTRYWIGWVRQMPGKGLEWMGIIYPGDSETRYSPSFQGHVTISADKSISTAYLQWNSLKASDTAMYYCARLPQYCRSGVCQRWFDPWGQGTLVTVSS
VL: EIVLTQSPSSVSASVGDRVTITCRASQGISSWLAWYQQKPGKAPKLLIYAASSLQSGVPSRFSGSGSGTDFTLTISSLQPEDFATYYCQQGNQVPYTFGQGTNLEIK
In test [1], B19 registered a 50% effective concentration (EC50) of 40 nM.

B20: ab41 (scFv, V domains shown)
VH: EVQLVESGAEVKKPGESLKISCKGSGYTFTRYWIGWVRQMPGKGLEWMGIIYPGDNDVRYSPSFQGHVTISADKSISTAYLQWNSLKASDTAMYYCARLPQYCSAGVCFRWFDPWGQGTLVTVSS
VL: EIVLTQSPSSVSASVGDRVTITCRASQGISNWLAWYQQKPGKAPKLLIYAASSLQSGVPSRFSGSGSGTDFTLTISSLQPEDFATYYCQQGYSYPYTFGQGTNLEIK
B20 returned an EC50 in test [1] of 34.1 nM.

B21: Anti-spike RBD Ab38 scFv (scFv)
scFv: ELQMTQSPSSLSASVGDRVTITCRASQSISSYLNWYQQKPGKAPKLLIYAASSLQSGVPSRFSGSGSGTDFTLTISSLQPEDFATYYCQQANSFPLTFGGGTKVEIKGGSSRSSQVQLVQSGAEVKKPGSSVKVSCKASGGTLSENGFSWVRQAPGQGLEWMGRIVPMFDISNYAERFQDRVTITADGSTNTAYMELRSLRLEDTAVYYCARDAVATSPGVYQHYGMDVWGQGTTVTVSSASTKGPSV
Regarding B21, the EC50 in test [2] is 10.6 nM.

For orientation: EC50 means the concentration that produces a half-maximal response.
